Experiments:
[1] = target: Fc-tagged human CD47-ECD protein (CD47-Fc) (human); assay: ELISA on coated human CD47-Fc; row printed as Affinity (µg/mL)
[2] = target: His-tagged human CD47-ECD protein (CD47-His) (human) (UniProt Q08722); assay: competitive ELISA on coated CD47-His (2 µg/mL); blocked ligand SIRPα-Fc-Bio (0.1 µg/mL), HRP-streptavidin, OD450
Chain of His-tagged human CD47-ECD protein (CD47-His) (human) (Q08722 other isoform, or with tags, fused parts or gaps): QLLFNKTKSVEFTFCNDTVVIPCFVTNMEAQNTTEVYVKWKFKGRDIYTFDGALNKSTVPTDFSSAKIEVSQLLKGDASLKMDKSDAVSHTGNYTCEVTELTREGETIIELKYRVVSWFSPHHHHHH

Chain of Fc-tagged human CD47-ECD protein (CD47-Fc) (human) (chain, as listed by the source limits assumed): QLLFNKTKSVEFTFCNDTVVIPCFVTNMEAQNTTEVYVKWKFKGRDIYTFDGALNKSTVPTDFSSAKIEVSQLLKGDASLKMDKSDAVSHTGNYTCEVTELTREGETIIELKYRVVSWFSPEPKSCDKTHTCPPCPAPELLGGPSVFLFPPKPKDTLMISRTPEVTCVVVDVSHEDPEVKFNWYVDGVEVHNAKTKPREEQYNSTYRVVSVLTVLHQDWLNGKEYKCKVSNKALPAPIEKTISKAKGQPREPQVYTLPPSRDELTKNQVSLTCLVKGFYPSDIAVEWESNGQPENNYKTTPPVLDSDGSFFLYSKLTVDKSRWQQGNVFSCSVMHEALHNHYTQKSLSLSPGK

| EC50 [1] | parameter C of the printed 4-parameter fit (OD does not fall, A 1.192, D 1.394; not an IC50) [2] | parameter C of the printed 4-parameter fit (OD does not fall, A 1.343, D 8.036; not an IC50) [2] | parameter C of the printed 4-parameter fit (OD only falls from A 1.633 to D 1.446; not an IC50) [2] | Substance |
| --- | --- | --- | --- | --- |
| 0.092 µg/mL | – | – | – | Antibody Hu5F9-G4 |
| – | 5.76 µg/mL | 13400 µg/mL | 1.95 µg/mL | IgG (antibody) |

Reference: patent publication US20230303711A1
